The text below walks through data of PMC7360973.

This series relates to Hsf1 wt (trimer) (human). Briefly: fluorescence polarization. Conditions: printed as <= 5 nM; 25 C; Hsf1 SEC buffer: 25 mM HEPES/NaOH pH 7.5, 150 mM NaCl, 10% glycerol, 2 mM DTT; FP at 25 C (5 nM DNA titration; 25 nM DNA and 100 nM trimer for dissociation) …. In general terms: Polarisation of emitted light reports the rotation of a fluorescent probe.

Some results are limits rather than exact numbers.

3xHSE DNA (Alexa Fluor 488) displayed a Kd of under 5 nM.

For orientation: Kd means the constant that tells how readily two partners part at equilibrium. High values mean lower affinity, low ones higher affinity.
